PMC5074314, “Maltase protein of Ogataea (Hansenula) polymorpha is a counterpart to the resurrected ancestor protein ancMALS of yeast maltases and isomaltases” (Yeast (Chichester, England), 2016)

T1: Op MAL1 (maltase protein MAL1 of Ogataea polymorpha) (Ogataea angusta, UniProt Q9P8G8)
T1 sequence (Q9P8G8 1-564): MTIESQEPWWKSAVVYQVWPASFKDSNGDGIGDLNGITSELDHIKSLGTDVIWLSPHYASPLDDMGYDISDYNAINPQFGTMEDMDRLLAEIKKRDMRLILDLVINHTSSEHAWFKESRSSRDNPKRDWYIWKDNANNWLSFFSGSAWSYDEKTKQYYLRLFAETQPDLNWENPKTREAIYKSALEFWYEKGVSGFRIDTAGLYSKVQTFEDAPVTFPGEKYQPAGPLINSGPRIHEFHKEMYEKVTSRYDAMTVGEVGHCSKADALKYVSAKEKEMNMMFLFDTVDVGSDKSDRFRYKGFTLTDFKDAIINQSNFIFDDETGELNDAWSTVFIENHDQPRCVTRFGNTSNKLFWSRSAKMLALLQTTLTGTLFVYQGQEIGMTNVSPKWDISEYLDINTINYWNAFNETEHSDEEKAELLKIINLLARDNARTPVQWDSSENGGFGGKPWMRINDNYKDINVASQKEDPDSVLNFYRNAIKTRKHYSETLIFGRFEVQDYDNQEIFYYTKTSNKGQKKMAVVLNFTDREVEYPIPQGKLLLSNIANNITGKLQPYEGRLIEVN

B1: Op MAL1 (maltase protein MAL1 of Ogataea polymorpha) (Ogataea angusta) (protein)
chain: MTIESQEPWWKSAVVYQVWPASFKDSNGDGIGDLNGITSELDHIKSLGTDVIWLSPHYASPLDDMGYDISDYNAINPQFGTMEDMDRLLAEIKKRDMRLILDLVINHTSSEHAWFKESRSSRDNPKRDWYIWKDNANNWLSFFSGSAWSYDEKTKQYYLRLFAETQPDLNWENPKTREAIYKSALEFWYEKGVSGFRIDTAGLYSKVQTFEDAPVTFPGEKYQPAGPLINSGPRIHEFHKEMYEKVTSRYDAMTVGEVGHCSKADALKYVSAKEKEMNMMFLFDTVDVGSDKSDRFRYKGFTLTDFKDAIINQSNFIFDDETGELNDAWSTVFIENHDQPRCVTRFGNTSNKLFWSRSAKMLALLQTTLTGTLFVYQGQEIGMTNVSPKWDISEYLDINTINYWNAFNETEHSDEEKAELLKIINLLARDNARTPVQWDSSENGGFGGKPWMRINDNYKDINVASQKEDPDSVLNFYRNAIKTRKHYSETLIFGRFEVQDYDNQEIFYYTKTSNKGQKKMAVVLNFTDREVEYPIPQGKLLLSNIANNITGKLQPYEGRLIEVN

Columns and labels:
[1] = biological target: T1, Op MAL1 (maltase protein MAL1 of Ogataea polymorpha); assay: inhibition of α-pNPG hydrolysis (p-nitrophenol release); format: biochemical; details: competitive; 0.1-3.0 mM α-pNPG; 100 mM K-phosphate pH 6.5, 0.1 mM EDTA, 37 °C; 5 min pre-incubation; read-out: K i (mM) of Op maltase
[2] = substrate: OC[C@H]1O[C@@](CO)(O[C@H]2O[C@H](CO)[C@@H](O)[C@H](O)[C@H]2O)[C@@H](O)[C@@H]1O; assay: initial rate of glucose release; format: biochemical, Ogataea angusta; details: 100 mM K-phosphate pH 6.5, 0.1 mM EDTA, 37 °C
Description: (§1) initial rate of glucose release on Op MAL1 (maltase protein MAL1 of Ogataea polymorpha)

[3] = substrate: CO[C@H]1O[C@H](CO)[C@@H](O)[C@H](O)[C@H]1O; assay: initial rate of glucose release; format: biochemical, Ogataea angusta; details: 100 mM K-phosphate pH 6.5, 0.1 mM EDTA, 37 °C
Description: as §1

purified protein = substrate: O=[N+]([O-])c1ccc(O[C@H]2O[C@H](CO)[C@@H](O)[C@H](O)[C@H]2O)cc1; assay: purified protein; details: 100 mM K-phosphate pH 6.5, 0.1 mM EDTA, 37 °C

Molecule | Ki [1] | Km [2] | kcat [2] | kcat/Km [2] | Km [3] | kcat [3] | kcat/Km [3] | Km (purified protein) | kcat (purified protein) | kcat/Km (purified protein)
OC[C@H]1OC(O)[C@H](O)[C@@H](O)[C@@H]1O (stereo partly drawn) [D-Glucose] | 5.1 ± 0.7 mM |  |  |  |  |  |  |  |  | 
C[C@H]1O[C@H](O[C@H]2[C@H](O)[C@@H](O)[C@@H](O[C@H]3[C@H](O)[C@@H](O)C(O)O[C@@H]3CO)O[C@@H]2CO)[C@H](O)[C@@H](O)[C@@H]1N[C@H]1C=C(CO)[C@@H](O)[C@H](O)[C@H]1O (some centres unmarked) [Acarbose] | 0.0065 ± 0.0008 mM |  |  |  |  |  |  |  |  | 
B1 |  | 25.1 ± 2.4 mM | 183 ± 6.95 s⁻¹ | 7290 M⁻¹ s⁻¹ | 35.5 ± 3.3 mM | 30.1 ± 1.1 s⁻¹ | 848 M⁻¹ s⁻¹ | 0.52 ± 0.05 mM | 141 s⁻¹ | 272000 M⁻¹ s⁻¹
